According to PMC6015732:

Experiments:
Assay in all cases: SPR
[1] = molecular target: RG802 (Rituxan clone 802, glycosylated) (human)
[2] = molecular target: RG801 (Fc domain of glycosylated clone 801 constructed with the Fab arms of Rituxan) (human)
[3] = molecular target: RA801 (Fc domain of aglycosylated clone 801 constructed with the Fab arms of Rituxan) (human)
[4] = molecular target: IgG1 (wild-type glycosylated IgG1) (human) [IgG part: P01857]

| Substance | Kd [1] | Kd [2] | Kd [3] | Kd [4] |
| --- | --- | --- | --- | --- |
| monomeric human FcRn–β2-microglobulin (from UniProt P55899 24-365; P61769 21-119) (complex) | 289 nM | 283 nM | 959 nM | 623 nM |
| human FcγRI (monomeric, soluble) (from UniProt P12314 16-292) (receptor) | – | 648 nM | – | – |
